In patent US8343490B2, “Monoclonal antibody SC104 and derivative thereof specifically binding to a sialyltetraosyl carbohydrate as a potential anti-tumor therapeutic agent” (Cephalon Australia Pty Ltd, priority 2004, dated 2013):
“And” between values parts separate entries of the source, which are not always exact repeats. Equal entries are not always repeated. Where two headings read alike, the source gives them in different places.

Assays:
colorectal tumours = assay: Binding to colorectal tumours (summary statement)
[1] = test system: colorectal tumour extranuclear membranes; assay: ELISA on extranuclear membranes of colorectal tumour; type: binding; conditions: one line per patient (1-7)
Procedure: • Tumour and normal membrane extract binding. Extranuclear extractions of colorectal and normal colonic membranes were produced and binding of SC104 was assayed by ELISA. Results

C170 xenografts = type: in vivo
Procedure: Prevention model. The colorectal tumour cell line, C170 was maintained in serial passage in nude mice. For therapy the mice were sacrificed and the tumours excised. The tumour was finely minced and […] pieces were implanted, under anaesthetic, subcutaneously into 30 male mice which had been randomly allocated to 4 experimental groups.
Mice were explanted with 3 mm^3 pieces of C170 xenografts. Groups of mice were treated with 5-FU/leucovorin (12.5 mg/Kg) by intravenous infusion on days 1, 3, 5, 7 and 28. On the same days mice were also injected intraperitonealy with 0.2 mg of SC104 mab. Control mice received either SC104 alone or control mouse IgG antibody with 5-FU/leucovorin. Tumour size was measured by callipers and tumour cross sectional area calculated on days 7, 9, 12, 14 and 16. Animals were weighed to assess the toxicity of treatment. At the termination of the experiment tumours were weighed to assess anti-tumour efficacy.

[2] = Blood group antigen ELISA, Lewis y; type: binding
Procedure: The Lewis ^y hapten and the type I and type II H blood group antigen (Sigma, Poole, Dorset) were dried microtitre plates by overnight incubation at 37° C. Binding of SC104 mab was assayed by ELISA as described above.

C170 cells = assay: C170 cell ELISA (hybridoma screening); type: binding
Procedure: ELISA. Antibody responses in the serum of immunised mice were assayed by titration using a standard non-competitive ELISA procedure. 96-well tissue culture plates were coated with C170 cells at a cell density of 5×10^5 cells/ml (100 μl/well) in 10% foetal bovine serum in RPMI 1640. The plates were incubated overnight at 37° C., 5% CO2, 95% air. The cells were then washed twice in phosphate buffered saline (pH7.3, PBS) prior to being fixed with 0.5% glutaraldehyde in PBS (10 min, 25° C., 100 μl/well). Remaining non-specific binding sites were blocked by incubation for 1 hr with 1% bovine serum albumin (fraction V from Sigma Chemicals Ltd.) in PBS. The cells were washed three times with a washing solution consisting of 0.05% Tween 20 in phosphate buffered saline before assaying post-boost serum for binding to C170 cells using a non-competitive sandwich ELISA. The pre-immunisation serum was used as a negative control. • Immunohistochemistry. Binding of hybridoma supernatants to tumour tissues was determined by indirect immunoperoxidase staining of frozen colorectal tumour sections. […] The bound antibody was detected with rabbit anti-mouse Ig conjugated to peroxidase (Dako Ltd., Bucks., UK) and following extensive washing the slides were stained with 0.05% diaminobenzidine and 0.01% H2O2 in 0.05M Tris-HCl, pH7.6 and counterstained with haematoxylin. […]

[3] = test system: freshly disaggregated colorectal tumour cells; assay: Primary tumour binding, flow cytometry
Procedure: • Primary tumour binding. Tumour specimens were obtained at the time of colorectal cancer resection. Specimens were finely minced and disaggregated with 0.05% collagenase (Type IV, Boehringer Mannheim, Lewes, UK) for 20 min at 37° C. The tumour cell suspension was removed and washed 3 times in Hanks balanced salt solution (Gibco BRL, Paisley, UK). Fresh collagenase was added to the remaining tissue and it was reincubated for a further 20 min. This procedure was repeated twice before combining cells from all dissociations and resuspending them in Dulbecco's medium containing 20% fetal calf serum (Gibco). Cells were incubated for 1 hr at 4° C. with SC104 mab (1 μg). […] Normal mouse immunoglobulin was used as a negative control and this fluorescence was subtracted from the fluorescence obtained with SC104. […] Results are expressed as mean linear fluorescence (MLF). […] The percentage of epithelial cells is measured by staining of cytokeratin mab Cam 5.2. was only 22±13% (range 10-60). However, following forward angle light scatter gating to selectively analyse cells in the malignant cell size range 79±4% (range 69-86) of the cells analysed were epithelial. […] The percentage of leukocytes as measured by staining with the anti-CD45 mab F-10-89 in the total nucleate population was 74±16 (range 40-90). […]

[4] = test system: range of tumour cell lines; assay: Binding to tumour cell lines by ELISA; conditions: SC104 1 μg/ml; FIG. 2a
Procedure: C170, Colo205, MKN45, R1D9, and 791T cells (10^5) were resuspended in 50 μl of SC104 mab (0-20 μg/ml) and incubated on ice for 20 min. After washing the samples 3 times in RPMI/10% FCS cells were incubated with FITC labelled rabbit anti-mouse (1/50: Dako Ltd, Bucks, UK) antibody and incubated on ice for 30 minutes prior to analysis on a FACScan (Becton Dickinson, Sunnyvale, Calif.). Results are expressed as mean linear fluorescence (MLF). • Binding to tumour cells by ELISA. 96-well tissue culture plates were coated with cells at a cell density of 5×10^5 cells/ml (100 μl/well) in 10% foetal bovine serum in RPMI 1640. The plates were incubated overnight at 37° C., 5% CO2, 95% air. The cells were then washed twice in phosphate buffered saline (pH7.3, PBS) prior to being fixed with 0.5% glutaraldehyde in PBS (10 min, 25° C., 100 μl/well). Remaining non-specific binding sites were blocked by incubation for 1 hr with 1% bovine serum albumin (fraction V from Sigma Chemicals Ltd.) in PBS. The cells were washed three times with a washing solution consisting of 0.05% Tween 20 in phosphate buffered saline. Cells were incubated with SC104 (1 μg/ml) for 1 hr at room temperature and then bound antibody detected with goat anti-mouse horse radish peroxidase and ABTS. Results are expressed as absorbance at 405 nm. Results

B1: SC104: mouse IgG1 monoclonal antibody specific for a sialyltetraosyl carbohydrate, raised by immunisation with colorectal cancer cell lines (antibody, V domains shown)
VH: DVQLQESGPDLVKPSQSLSLTCTVTGYSITSGYSWHWVRQFPGNKMEWMGHIHFSGRPTYNPSLSSRISITRDTSKNQFLLQLKFVTTEDTSTYFCARKGKGSDDGLNYWGQGISVTVSS
VL: ENVLTQSPVIMSASPGEKVTMTCSASSSLSYIHWYQQKSRTSPKLWIYDTSNLASGVPGRFSGSGSGNSYSLTISSMEAEDVATYYCFQGSEYPLTFGGGTKLEMT
colorectal tumours bound (colorectal tumours): 71% | Binding of SC104 mab to extranuclear membranes: Colorectal Tumour [1]: 0.221 and 0.278 and 0.196 and 0.281 and 0.102 and 0.001 and 0.437 | survival of mice (C170 xenografts; Log Rank, FIG. 26b): significant improvement of survival | inhibition of tumour growth of freshly explanted tumours (C170 xenografts; SC104 200 μg/dose ip, 5-FU/leucovorin at maximum tolerated dose, FIG. 26a): 50% | inhibition of tumour growth (C170 xenografts; day 9): 32% | inhibition of tumour growth (C170 xenografts; day 12): 44% | inhibition of tumour growth (C170 xenografts; day 14): 54% | inhibition of tumour growth (C170 xenografts; day 16): 62% | Binding to blood group antigens by ELISA: Lewis ^y [2]: 0.057 OD 405 nm | C170 ELISA (OD 405 nm) (C170 cells): 0.301 OD 405 nm | freshly disaggregated colorectal tumour cells bound strongly ([3]; FIG. 3): > 80% | mean antigen density ([3]; freshly disaggregated colorectal tumour cells): 4×10^5 antigens per cell | binding to range of tumour cell lines by ELISA [4]: predominantly bound to cell lines of the gastrointestinal origin
